Results on one substance are retold here after patent publication US20050048627A1.

For the assay, the target named is MMP-2 (UniProt P08253). The experiment in a line: cell-based or functional assay.
UniProt P08253, sequence (P08253 110-660 limits assumed): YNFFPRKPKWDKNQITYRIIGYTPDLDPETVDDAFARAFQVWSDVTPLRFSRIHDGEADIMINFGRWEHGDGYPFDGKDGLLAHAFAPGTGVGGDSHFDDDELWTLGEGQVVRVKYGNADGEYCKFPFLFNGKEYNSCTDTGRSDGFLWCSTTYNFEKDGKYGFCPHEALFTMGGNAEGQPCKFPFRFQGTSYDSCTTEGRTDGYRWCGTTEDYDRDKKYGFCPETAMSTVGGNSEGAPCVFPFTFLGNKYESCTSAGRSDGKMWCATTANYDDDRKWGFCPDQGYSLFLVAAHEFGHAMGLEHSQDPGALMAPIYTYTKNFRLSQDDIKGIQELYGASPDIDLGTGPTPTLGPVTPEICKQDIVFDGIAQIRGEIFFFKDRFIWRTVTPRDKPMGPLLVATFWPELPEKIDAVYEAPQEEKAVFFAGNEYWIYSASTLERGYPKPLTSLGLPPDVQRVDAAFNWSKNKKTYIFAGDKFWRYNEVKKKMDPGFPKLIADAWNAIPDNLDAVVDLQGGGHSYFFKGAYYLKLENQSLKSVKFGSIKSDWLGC

In turn, “human serum albumin-TIMP2 fusion protein” had an inhibition of MMP-2 activity (spectrofluorometric assay, 10 nM MMP-2, 10 µM MCA-Pro-Leu-Gly-Leu-Dap(Dnp)-Ala-Arg-NH2 substrate) at 7.5 µg/ml HSA-TIMP2 of 37% and an inhibition of MMP-2 activity (spectrofluorometric assay, 10 nM MMP-2, 10 µM MCA-Pro-Leu-Gly-Leu-Dap(Dnp)-Ala-Arg-NH2 substrate) at 15 µg/ml HSA-TIMP2 of 55%.
